Key:
[1] = cell surface biotinylation, Western blot; details: glycan lost; control: wild type
[2] = I-V relationship; details: glycan lost; control: wild type

B1: TRPM5: N932Q (protein)
parent chain: MQDVQGPRPGSPGDAEDRRELGLHRGEVNFGGSGKKRGKFVRVPSGVAPSVLFDLLLAEWHLPAPNLVVSLVGEEQPFAMKSWLRDVLRKGLVKAAQSTGAWILTSALRVGLARHVGQAVRDHSLASTSTKVRVVAVGMASLGRVLHRRILEEAQEDFPVHYPEDDGGSQGPLCSLDSNLSHFILVEPGPPGKGDGLTELRLRLEKHISEQRAGYGGTGSIEIPVLCLLVNGDPNTLERISRAVEQAAPWLILVGSGGIADVLAALVNQPHLLVPKVAEKQFKEKFPSKHFSWEDIVRWTKLLQNITSHQHLLTVYDFEQEGSEELDTVILKALVKACKSHSQEPQDYLDELKLAVAWDRVDIAKSEIFNGDVEWKSCDLEEVMVDALVSNKPEFVRLFVDNGADVADFLTYGRLQELYRSVSRKSLLFDLLQRKQEEARLTLAGLGTQQAREPPAGPPAFSLHEVSRVLKDFLQDACRGFYQDGRPGDRRRAEKGPAKRPTGQKWLLDLNQKSENPWRDLFLWAVLQNRHEMATYFWAMGQEGVAAALAACKILKEMSHLETEAEAARATREAKYERLALDLFSECYSNSEARAFALLVRRNRCWSKTTCLHLATEADAKAFFAHDGVQAFLTRIWWGDMAAGTPILRLLGAFLCPALVYTNLITFSEEAPLRTGLEDLQDLDSLDTEKSPLYGLQSRVEELVEAPRAQGDRGPRAVFLLTRWRKFWGAPVTVFLGNVVMYFAFLFLFTYVLLVDFRPPPQGPSGPEVTLYFWVFTLVLEEIRQGFFTDEDTHLVKKFTLYVGDNWNKCDMVAIFLFIVGVTCRMLPSAFEAGRTVLAMDFMVFTLRLIHIFAIHKQLGPKIIVVERMMKDVFFFLFFLSVWLVAYGVTTQALLHPHDGRLEWIFRRVLYRPYLQIFGQIPLDEIDEARVNCSTHPLLLEDSPSCPSLYANWLVILLLVTFLLVTNVLLMNLLIAMFSYTFQVVQGNADMFWKFQRYNLIVEYHERPALAPPFILLSHLSLTLRRVFKKEAEHKREHLERDLPDPLDQKVVTWETVQKENFLSKMEKRRRDSEGEVLRKTAHRVDFIAKYLGGLREQEKRIKCLESQINYCSVLVSSVADVLAQGGGPRSSQHCGEGSQLVAADHRGGLDGWEQPGAGQPPSDT
For B1, the localisation_or_trafficking [1] was “no change” and the “other: channel biophysical properties” value [2] was “no change”.

Reference: PMC3932411
